Measurements published in patent US20220204643A1 (published 2022).
Values belong to the binder of their own block, whether it stands above or below them.

Key:
[1] = target: T1, family with sequence similarity 177 member A1, transcript variant 2 (human, UniProt Q8N128 1-213)
T1 construct: HuProt array protein, full-length recombinant from yeast; also called FAM177A1
T1 sequence: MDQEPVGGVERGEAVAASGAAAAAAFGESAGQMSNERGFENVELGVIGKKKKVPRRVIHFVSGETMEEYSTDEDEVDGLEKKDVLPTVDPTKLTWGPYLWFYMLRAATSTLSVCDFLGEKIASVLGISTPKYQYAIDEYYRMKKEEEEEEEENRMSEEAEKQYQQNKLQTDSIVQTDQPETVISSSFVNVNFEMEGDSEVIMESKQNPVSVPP

[2] = target: T2, FMR1 autosomal homolog 2 (human, UniProt P51116 1-673)
T2 construct: HuProt array protein, full-length recombinant from yeast; also called FXR2
T2 sequence (P51116 whole entry Q252H): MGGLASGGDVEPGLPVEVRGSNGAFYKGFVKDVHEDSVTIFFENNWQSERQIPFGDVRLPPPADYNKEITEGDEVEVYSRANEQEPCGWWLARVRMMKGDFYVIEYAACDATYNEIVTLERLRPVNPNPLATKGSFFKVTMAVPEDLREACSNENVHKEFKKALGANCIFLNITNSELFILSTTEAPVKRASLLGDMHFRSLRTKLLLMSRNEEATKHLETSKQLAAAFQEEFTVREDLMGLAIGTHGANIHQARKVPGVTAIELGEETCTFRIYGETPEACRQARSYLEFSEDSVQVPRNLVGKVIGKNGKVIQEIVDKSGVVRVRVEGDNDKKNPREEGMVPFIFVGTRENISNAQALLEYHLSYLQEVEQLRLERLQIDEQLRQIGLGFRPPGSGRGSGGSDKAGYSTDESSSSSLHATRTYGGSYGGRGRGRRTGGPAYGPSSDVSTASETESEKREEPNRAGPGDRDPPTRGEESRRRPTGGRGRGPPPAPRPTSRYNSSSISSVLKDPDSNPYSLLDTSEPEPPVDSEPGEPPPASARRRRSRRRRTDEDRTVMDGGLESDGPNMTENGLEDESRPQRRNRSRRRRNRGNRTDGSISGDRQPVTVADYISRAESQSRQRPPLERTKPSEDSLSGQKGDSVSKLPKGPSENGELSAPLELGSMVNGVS

[3] = target: T3, tripartite motif containing 35, transcript variant 1 (human, UniProt Q9UPQ4 1-493)
T3 construct: HuProt array protein, full-length recombinant from yeast; also called TRIM35
T3 sequence: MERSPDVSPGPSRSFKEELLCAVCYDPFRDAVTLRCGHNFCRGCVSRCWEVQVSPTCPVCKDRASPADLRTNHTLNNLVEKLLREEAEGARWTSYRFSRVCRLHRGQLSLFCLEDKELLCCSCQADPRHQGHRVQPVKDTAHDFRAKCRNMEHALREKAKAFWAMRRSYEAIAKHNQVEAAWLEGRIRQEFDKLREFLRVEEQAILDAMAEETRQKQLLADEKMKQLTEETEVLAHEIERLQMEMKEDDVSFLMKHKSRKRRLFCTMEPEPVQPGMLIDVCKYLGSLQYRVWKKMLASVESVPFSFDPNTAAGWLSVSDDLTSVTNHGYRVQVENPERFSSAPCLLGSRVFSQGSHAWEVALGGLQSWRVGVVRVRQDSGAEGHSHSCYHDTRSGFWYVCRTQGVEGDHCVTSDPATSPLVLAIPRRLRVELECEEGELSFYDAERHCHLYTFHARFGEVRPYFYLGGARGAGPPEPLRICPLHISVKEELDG

[4] = target: T4, Killer cell lectin like receptor g2 (human, UniProt A4D1S0 1-409)
T4 construct: HuProt array protein, full-length recombinant from yeast; also called KLRG2
T4 sequence: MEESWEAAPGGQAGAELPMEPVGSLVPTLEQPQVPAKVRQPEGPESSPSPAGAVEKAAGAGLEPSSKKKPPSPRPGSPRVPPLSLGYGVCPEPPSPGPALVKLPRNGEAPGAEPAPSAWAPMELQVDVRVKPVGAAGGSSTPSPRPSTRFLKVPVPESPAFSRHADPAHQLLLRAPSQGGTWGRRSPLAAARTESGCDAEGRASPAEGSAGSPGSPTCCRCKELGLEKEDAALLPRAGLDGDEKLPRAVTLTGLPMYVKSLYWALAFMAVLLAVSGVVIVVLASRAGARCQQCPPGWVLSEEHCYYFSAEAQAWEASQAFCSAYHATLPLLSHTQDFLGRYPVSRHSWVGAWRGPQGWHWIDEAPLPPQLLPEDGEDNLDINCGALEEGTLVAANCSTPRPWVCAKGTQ

[5] = target: T5, annexin A1 (human, UniProt P04083 2-346)
T5 construct: HuProt array protein, full-length recombinant from yeast; printed 'annexin Al'; also called ANXA1
T5 sequence: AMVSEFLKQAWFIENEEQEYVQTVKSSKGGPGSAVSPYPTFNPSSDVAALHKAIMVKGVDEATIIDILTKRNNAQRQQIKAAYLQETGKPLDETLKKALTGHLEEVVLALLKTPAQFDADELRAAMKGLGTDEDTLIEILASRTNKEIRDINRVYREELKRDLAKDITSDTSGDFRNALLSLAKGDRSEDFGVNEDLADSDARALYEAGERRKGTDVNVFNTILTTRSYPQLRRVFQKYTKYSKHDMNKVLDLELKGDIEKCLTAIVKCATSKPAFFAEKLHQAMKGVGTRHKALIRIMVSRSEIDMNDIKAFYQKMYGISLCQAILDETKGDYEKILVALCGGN

[6] = target: T6, RAN binding protein 10, transcript variant 1 (human, UniProt Q6VN20 2-620)
T6 construct: HuProt array protein, full-length recombinant from yeast; also called RANBP10
T6 sequence (Q6VN20 2-620 limits assumed, change not shown): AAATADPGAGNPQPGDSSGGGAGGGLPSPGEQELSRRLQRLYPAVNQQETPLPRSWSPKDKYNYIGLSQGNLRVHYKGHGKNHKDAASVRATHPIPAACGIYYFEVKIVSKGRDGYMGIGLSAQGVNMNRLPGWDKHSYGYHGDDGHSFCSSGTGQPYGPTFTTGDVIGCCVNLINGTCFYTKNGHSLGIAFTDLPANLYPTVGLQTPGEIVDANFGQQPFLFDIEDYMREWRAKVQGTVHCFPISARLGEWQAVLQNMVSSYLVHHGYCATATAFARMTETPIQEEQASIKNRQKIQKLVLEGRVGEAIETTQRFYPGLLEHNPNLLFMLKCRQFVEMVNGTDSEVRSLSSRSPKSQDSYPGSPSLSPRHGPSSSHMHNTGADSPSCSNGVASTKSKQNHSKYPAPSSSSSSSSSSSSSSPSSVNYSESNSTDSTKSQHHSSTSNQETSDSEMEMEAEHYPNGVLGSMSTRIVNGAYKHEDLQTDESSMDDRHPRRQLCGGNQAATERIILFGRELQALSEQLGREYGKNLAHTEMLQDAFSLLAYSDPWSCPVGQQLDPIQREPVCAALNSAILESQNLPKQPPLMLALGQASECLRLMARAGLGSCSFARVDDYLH

[7] = target: T7, methyltransferase like 21C (human, UniProt Q5VZV1 1-264)
T7 construct: HuProt array protein, full-length recombinant from yeast; also called METTL21C
T7 sequence (Q5VZV1 whole entry): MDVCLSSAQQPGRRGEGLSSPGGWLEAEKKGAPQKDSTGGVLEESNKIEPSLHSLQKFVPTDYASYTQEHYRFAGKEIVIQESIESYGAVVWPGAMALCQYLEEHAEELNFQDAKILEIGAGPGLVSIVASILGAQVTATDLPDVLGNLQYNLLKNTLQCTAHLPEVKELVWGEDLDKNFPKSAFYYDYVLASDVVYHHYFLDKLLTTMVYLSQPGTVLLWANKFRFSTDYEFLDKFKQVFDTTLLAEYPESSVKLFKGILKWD

[8] = target: T8, hook microtubule tethering protein 2, transcript variant 2 (human, UniProt Q96ED9 1-719)
T8 construct: HuProt array protein, full-length recombinant from yeast; also called HOOK2
T8 sequence: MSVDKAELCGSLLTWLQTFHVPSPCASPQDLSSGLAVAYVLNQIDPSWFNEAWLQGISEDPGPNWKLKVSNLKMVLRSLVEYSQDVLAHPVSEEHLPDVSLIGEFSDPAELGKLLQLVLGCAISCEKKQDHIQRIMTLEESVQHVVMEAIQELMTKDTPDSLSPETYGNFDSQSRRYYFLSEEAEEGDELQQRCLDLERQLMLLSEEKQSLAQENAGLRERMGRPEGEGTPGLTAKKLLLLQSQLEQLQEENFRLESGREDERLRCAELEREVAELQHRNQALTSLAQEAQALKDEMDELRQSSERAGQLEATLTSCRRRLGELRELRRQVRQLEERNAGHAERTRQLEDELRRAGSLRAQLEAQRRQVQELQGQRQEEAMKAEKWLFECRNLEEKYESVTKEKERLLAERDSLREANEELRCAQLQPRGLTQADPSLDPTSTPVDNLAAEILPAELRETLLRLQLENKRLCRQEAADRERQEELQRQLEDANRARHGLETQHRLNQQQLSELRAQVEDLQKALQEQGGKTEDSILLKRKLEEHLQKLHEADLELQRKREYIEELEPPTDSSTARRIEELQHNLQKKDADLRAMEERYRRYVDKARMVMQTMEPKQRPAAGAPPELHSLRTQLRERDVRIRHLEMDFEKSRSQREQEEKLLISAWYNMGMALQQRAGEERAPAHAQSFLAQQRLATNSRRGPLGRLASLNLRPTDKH

[9] = target: T9, hydroxymethylbilane synthase, transcript variant X3 (human, UniProt P08397 18-361)
T9 construct: HuProt array protein, full-length recombinant from yeast; also called HMBS
T9 sequence: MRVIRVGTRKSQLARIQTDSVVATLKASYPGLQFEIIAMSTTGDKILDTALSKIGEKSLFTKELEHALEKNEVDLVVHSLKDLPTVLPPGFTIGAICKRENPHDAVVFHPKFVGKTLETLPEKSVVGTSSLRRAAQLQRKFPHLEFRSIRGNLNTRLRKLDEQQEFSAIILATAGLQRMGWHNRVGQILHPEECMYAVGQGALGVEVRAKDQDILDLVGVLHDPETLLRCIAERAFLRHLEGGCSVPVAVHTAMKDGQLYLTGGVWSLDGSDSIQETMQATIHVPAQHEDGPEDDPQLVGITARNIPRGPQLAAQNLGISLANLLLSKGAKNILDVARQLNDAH

[10] = target: T10, ubiquilin 1, transcript variant 2 (human, UniProt Q9UMX0 2-589)
T10 construct: HuProt array protein, full-length recombinant from yeast; also called UBQLN1
T10 sequence (Q9UMX0 other isoform, or with tags, fused parts or gaps mutant limits assumed): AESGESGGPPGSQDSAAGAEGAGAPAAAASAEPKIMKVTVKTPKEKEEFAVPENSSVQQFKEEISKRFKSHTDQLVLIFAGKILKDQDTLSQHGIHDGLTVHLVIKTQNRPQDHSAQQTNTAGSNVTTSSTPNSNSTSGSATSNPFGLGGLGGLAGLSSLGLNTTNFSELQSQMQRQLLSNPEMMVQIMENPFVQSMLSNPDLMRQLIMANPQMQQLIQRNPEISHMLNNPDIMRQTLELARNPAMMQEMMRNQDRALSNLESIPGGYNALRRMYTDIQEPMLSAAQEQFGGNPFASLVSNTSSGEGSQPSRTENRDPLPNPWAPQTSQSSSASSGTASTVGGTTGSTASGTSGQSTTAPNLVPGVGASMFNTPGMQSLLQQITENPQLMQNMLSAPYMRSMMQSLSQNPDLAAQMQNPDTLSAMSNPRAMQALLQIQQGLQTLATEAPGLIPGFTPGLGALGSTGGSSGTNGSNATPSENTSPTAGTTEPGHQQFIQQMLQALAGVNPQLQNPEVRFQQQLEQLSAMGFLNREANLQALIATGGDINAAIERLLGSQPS

[11] = target: T11, ubiquilin 2 (human, UniProt Q9UHD9 2-624)
T11 construct: HuProt array protein, full-length recombinant from yeast; also called UBQLN2
T11 sequence (Q9UHD9 2-624 limits assumed): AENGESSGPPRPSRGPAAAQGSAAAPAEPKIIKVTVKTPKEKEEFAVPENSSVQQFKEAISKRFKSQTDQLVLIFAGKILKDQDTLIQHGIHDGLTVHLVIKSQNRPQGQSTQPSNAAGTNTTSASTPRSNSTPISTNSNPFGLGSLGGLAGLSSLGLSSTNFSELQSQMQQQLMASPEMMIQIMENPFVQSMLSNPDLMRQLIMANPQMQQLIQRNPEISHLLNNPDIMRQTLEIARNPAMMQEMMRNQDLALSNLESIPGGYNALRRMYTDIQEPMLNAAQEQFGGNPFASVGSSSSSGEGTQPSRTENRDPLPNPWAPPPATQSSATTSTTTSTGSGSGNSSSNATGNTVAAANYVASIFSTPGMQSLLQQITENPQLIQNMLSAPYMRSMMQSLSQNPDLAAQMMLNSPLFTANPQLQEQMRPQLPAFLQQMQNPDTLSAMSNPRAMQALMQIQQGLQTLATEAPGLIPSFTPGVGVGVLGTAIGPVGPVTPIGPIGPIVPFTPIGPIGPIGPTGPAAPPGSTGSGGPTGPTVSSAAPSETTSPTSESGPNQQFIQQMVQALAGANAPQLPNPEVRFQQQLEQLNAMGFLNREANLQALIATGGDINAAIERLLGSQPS

[12] = target: T12, Ubiquilin 3 (human, UniProt Q9H347 1-655)
T12 construct: HuProt array protein, full-length recombinant from yeast; also called UBQLN3
T12 sequence: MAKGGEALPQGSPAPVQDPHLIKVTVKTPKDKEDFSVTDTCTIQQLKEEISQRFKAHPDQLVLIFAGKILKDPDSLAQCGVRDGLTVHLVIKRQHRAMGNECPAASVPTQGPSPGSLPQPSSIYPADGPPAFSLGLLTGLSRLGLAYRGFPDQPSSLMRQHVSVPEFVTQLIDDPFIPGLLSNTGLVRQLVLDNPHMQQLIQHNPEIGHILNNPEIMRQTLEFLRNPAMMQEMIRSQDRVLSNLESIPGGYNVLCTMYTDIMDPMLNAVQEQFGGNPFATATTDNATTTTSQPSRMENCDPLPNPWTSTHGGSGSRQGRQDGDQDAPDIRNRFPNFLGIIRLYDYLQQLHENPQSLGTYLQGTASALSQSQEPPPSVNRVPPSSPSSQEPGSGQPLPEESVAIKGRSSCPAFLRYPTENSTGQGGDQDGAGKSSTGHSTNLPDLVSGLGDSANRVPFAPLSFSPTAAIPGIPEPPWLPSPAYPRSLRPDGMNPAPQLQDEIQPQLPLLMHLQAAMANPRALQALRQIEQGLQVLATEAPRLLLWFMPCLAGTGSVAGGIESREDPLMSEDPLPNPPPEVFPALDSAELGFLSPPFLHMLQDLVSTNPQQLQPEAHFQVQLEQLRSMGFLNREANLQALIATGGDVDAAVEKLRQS

- binding result [1]: binds
B1: TLUA1016 (antibody, V domains shown)
VH: EVQLLESGGALVQPGGSLRLSCAVSGLTFNRFAMTWVRQAPGKGLEWVSHIGGSGGYTYYADSVKGRFTISRDNSKNTLYLQMNSLRAEDTAVYHCVKLKGIGAMWTYAMDVWGQGTTVTVSS
VL: QSVLTQPPSVSGAPGQRVTIPCTGSSSNLGAGYAVHWYQQLPATTPKLLIYANSSRPSGVPDRFSGSRSDTSASLAITGLQAEDEADYYCQSYDSSLSGYVFGTGTWVTVLS
notes: detected with anti-human IgG Fc

- binding result [2]: binds
- binding result [3]: binds
B2: TLUA1001 (antibody, V domains shown)
VH: PLQLQESGPGLVKPSETLSLTCSVSGGSIRSSAPFWGWIRQPPGKGLEWIGNIYYNGDTSYSPSLENRVTLFVDTSKNQFSLNLTSVTAADTAVYYCGRIMTPSIDLWGQGKLVTVSS
VL: EIVLTQSPGTLSLSPGERATLSCRASQSISSTYLVWYQQKPGQAPRLLIYAASYRATGIPDRFSGSGSGTDFILTISRLEPEDFAVYYCQQYGSSLTFGGGTKVEIKR
notes: as for B1
- binding result [4]: binds

- binding result [5]: binds
B3: TLUA1004 (antibody, V domains shown)
VH: EVQLVESGGGLVQTGGSLRLSCSASGFTFNNYWMHWVRQAPGKGLLWLSRINTDGSRGHYDDSVQGRFTISRDNAKQTVYLQMDGLRAEDTAVYFCARDGYDFRAFDHWGQGVLVTVSS
VL: DIQMTQSPSSLSASVGDKVTMTCRASQFISVYVNWYQQKPGKAPKLLIYTASSLESGVSSRFSGGGSGTDFTLTIRSLQPEDFAIYYCQQTYSTPWTFGPGTRVEIKR
notes: as for B1

- binding result [6]: binds
B4: TMEL1017 (antibody, V domains shown)
VH: EVQLVESGGGLVKPGGSLRLSCAASGFTFSNYNMNWVRQAPGKGLEWVSSISSSSSYIYYADSVKGRFTISRDNAKNSLYLQMNSLRAEDTAVYYCARDALDFDWLLSAGGFDYWGQGTLVTVSS
VL: ASALTQPASVSGSPGQSITISCTGTSSDVGGYNYVSWYQQHPGKAPKLMIYEVSNRPSGVSNRFSGSKSGNTASLTISGLQAEDEADYYCSSYTSSSTLVFGGGTKLTVLG
notes: as for B1

- binding result [7]: binds
B5: TLUS1003 (antibody, V domains shown)
VH: QVHLVQSGSEFKKPGASVKISCKTSGYTFTNYAMNWVRQAPGQGLEWVGWINTVTGIPGYAQGFTGRFIISLDTSGRTSYLQINSLQAEDTAVYYCARSGGFGWSRDLDYWGQGTLVTVSS
VL: DIVLTQSPLSLPVTPGEPASISCRSSQSLLHSNGVYYLDWYLLKPGQSPQLVIYMGSSRASGVPDRFSGSGSGTDFRLKISRVEAEDVGIYYCMQALQTPWTFGQGTKVEIKR
notes: as for B1

- binding result [8]: binds
- binding result [9]: binds
B6: TLUS1006 (antibody, V domains shown)
VH: PVHLVQSGAEVRKPGSSVKVSCMASGGSFNTYAVNWVRQAPGQGLEWMGGIIPVFGTTNYAPRFQGRVTITADESTSTVYMELTSLTSEDTAVYYCARDRDSGYERNCLDPWGQGTLVTVSS
VL: DIVMTQSPDSLAVTLGERATINCRSSQTVLYDSNNKNYLAWYQQKPGQPPKLLIYWASIRESGVPDRFSGSGSGTDFTLTINTLQAEDVAIYFCQQYFTTPRTFGQGTKVEIKR
notes: as for B1

- binding result [10]: binds
- binding result [11]: binds
- binding result [12]: binds
B7: TMEL1018 (antibody, V domains shown)
VH: PLQLQESGPGLVKPSETLSLTCTVSGGSISSSSYYWGWIRQPPGKGLEWIGSIYYSGSTYYNPSLKSRVTISVDTSKNQFSLKLSSVTAADTAVYSCARLLVGGAFDIWGQGTMVTVSS
VL: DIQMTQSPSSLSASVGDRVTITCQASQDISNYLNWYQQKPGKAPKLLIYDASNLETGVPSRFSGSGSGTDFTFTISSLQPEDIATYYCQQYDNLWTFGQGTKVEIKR
notes: as for B1
